Assay results: patent US20080102476A1, “Analyzing Histamine H4 Receptor-Mediated Effects In Whole Blood” (priority 2003, published 2008)

What was measured:
[1] = tested on: eosinophils in human whole blood; experiment: Whole blood eosinophil shape change GAFS assay (Example 1A); format: cell-based
Experimental: Starting materials were obtained as described in the experiments above. Human whole blood samples were used to study eosinophil shape change response. Human blood samples collected from healthy donors were treated with 3.8% tri-sodium citrate as anti-coagulator (or other anti-coagulators) and centrifuges at 300 rpm. The samples were used for experiments within 1 hour. Aliquots of 80 μl whole blood were pretreated with histamine receptor analogues (such as H1 receptor antagonist diphenhydramine, H2 antagonist ranitidine, H4 receptor antagonists thioperamide and Compound A, and H3 receptor antagonist Compound B) for 10 minutes before addition of histamine or chemokines in 1.2-ml polypropylene cluster tubes (Costar, Cambridge, Mass.) in a final volume of 100 μl. The tubes were placed in a 37° C. water bath for 10 min, after which they were transferred to an ice-water bath, and 250 μl of ice-cold fixative (2% paraformaldehyde in PBS or other fixatives) was added to terminate the reaction and to maintain the cell shape change. Red cells were lysed with 3 ml Qiagen lysis solution (Qiagen, Valencia, Calif.) for 10 minutes at 4° C. Leukocytes were recovered by centrifugation at 2000 rpm for 5 minutes, washed once with either PBS containing 10 mM Ca^2+ and Mg^2+, 10 mM HEPES, 10 mM glucose, and 0.1% BSA (for FIGS. 10 and 11) or PBS containing 0.5% BSA and 2 mM EDTA (for other figures), and then resuspended in the same buffer. The cell shape change was analyzed on a FACScan flow cytometer (Becton Dickinson, Mountain View, Calif.). Eosinophils were gated based on their high autofluorescence relative to neutrophils and shape change was monitored in forward scatter signals. Data were acquired for 1500 high-fluorescence eosinophil events. The results are expressed as the percentage increase in FSC compared to unstimulated cells. Results obtained are provided in the Tables I and II, below, which also correspond to FIG. 7 and FIG. 8, respectively.

[2] = tested on: human eosinophils; experiment: Eosinophil shape change in human PMNL by flow cytometry (GAFS assay); format: cell-based; settings: for EC50: human PMNL, chemokines, FIG. 3D
Experimental: PMNL were prepared as described above and cells were resuspended in assay buffer (PBS containing 10 mM Ca^2+ and Mg^2+, 10 mM HEPES, 10 mM glucose, and 0.1% BSA, pH 7.2-7.4). Aliquots of cells (5×10^5 PMNL in 80 μl assay buffer) were pretreated with histamine receptor analogues (diphenhydramine, ranitidine, thioperamide, Compound A or H3 receptor antagonist) for 10 min at room temperature before addition of histamine or chemokines in 1.2-ml polypropylene cluster tubes (Costar, Cambridge, Mass.) in a final volume of 100 μl. The tubes were placed in a 37° C. water bath for 10 min (or as indicated), after which they were transferred to an ice-water bath, and 250 μl of ice-cold fixative (2% paraformaldehyde in PBS) was added to terminate the reaction and to maintain the cell shape change. […] Cell shape change was monitored in forward scatter signals. To identify eosinophils and neutrophils in PMNL, cells were stained on ice for 30 min with saturating concentrations of FITC-conjugated anti-CCR3 or anti-CD16 antibodies, which are specific for eosinophils or neutrophils, respectively. Samples after antibody staining were analyzed in flow cytometry.

[3] = tested on: human eosinophils; settings: cited from earlier work
[4] = tested on: purified human eosinophils; experiment: In vitro eosinophil chemotaxis assay (Transwell); format: cell-based; settings: for EC50: Transwell, 2 h
Experimental: Transwells (Costar, Cambridge, Mass.) with 5 μm pore size were coated with 100 μl of 100 ng/ml human fibronectin (Sigma) for 2 h at room temperature. After removal of excess fibronectin, 600 μl of RPMI-1640 medium containing 0.5% BSA and different concentrations of histamine (0.01-100 μM) was added to the bottom chamber, Eosinophils (2×10^5/well) were added to the top chamber. Histamine receptor analogues (diphenhydramine, ranitidine, thioperamide, Compound A or Compound B) were added to both the top and bottom chambers to a final concentration of 10 μM or at other concentration as stated in figure legends. The plates were incubated for 2 h at 37° C. and the number of cells migrated to the bottom chamber was counted for 1 min using flow cytometer.

[5] = tested on: human eosinophils; experiment: Cell surface expression of adhesion molecules on eosinophils by flow cytometry; format: cell-based; settings: antagonist 10 μM
Experimental: Purified eosinophils were used to study cell surface expression of adhesion molecules. Eosinophils were resuspended in PBS containing 10 mM Ca^2+ and Mg^2+, 10 mM HEPES, 10 mM glucose, and 0.1% BSA, pH 7.2-7.4. Aliquots of cells (5×10^5 PMNL) were pretreated with histamine receptor analogues (as described above) for 10 min before addition of histamine or chemokines in 1.2-ml polypropylene cluster tubes (Costar, Cambridge, Mass.) in a final volume of 100 μl. The tubes were placed in a 37° C. water bath for 10 min (or as indicated), after which they were transferred to an ice-water bath, and 250 μl of ice-cold fixative (0.5% paraformaldehyde in PBS) was added. Samples were then incubated on ice for 30 min with saturating concentration of either FITC or phycoerytherine-conjugated anti-CD11a, anti-CD11b or anti-CD54 antibodies, washed, and then analyzed by flow cytometry.

Question: Which results are given for `N=C(N)SCCc1cnc[nH]1` [imetit]?
Answer: agonist effect on eosinophil shape change in whole blood ([1]; FIGS. 9A and 9B): mimic histamine in inducing eosinophil shape change; agonist effect on eosinophil shape change ([2]; FIG. 4C): partial shape change

Question: With `S=C(NC1CCCCC1)N1CCC(c2cnc[nH]2)CC1` [thioperamide] as the molecule, how does the “effect on eosinophil chemotaxis toward histamine” value [3] read?
Answer: The value was “blocked”.

Question: What about the IC50 ([2]; Homo sapiens, Eosinophil, 1 μM histamine, FIG. 4B, read-out: IC50 in blocking 1 μM histamine-induced eosinophil shape change) of the same molecule?
Answer: Its IC50 is 128 nM.

Question: And the “effect on histamine-induced eosinophil shape change” value ([2]; antagonist 10 μM, 1 μM histamine 10 min)?
Answer: The value was “blocked the histamine-induced eosinophil shape change completely”.

Question: What about the IC50 ([4]; Homo sapiens, Eosinophil, 1 μM histamine in lower chamber, read-out: IC50 in blocking 1 μM histamine-induced eosinophil chemotaxis) of the same molecule?
Answer: The IC50 was 519 nM.

Question: And the “effect on histamine-induced eosinophil chemotaxis” value ([4]; antagonist 10 μM in both chambers)?
Answer: Its value is “inhibited completely”.

Question: And the “effect on histamine-induced up-regulation of CD11b/CD18 and CD54 expression” value [5]?
Answer: The value was “abolished”.

Question: Which results are given for “MCP-3: chemokine purchased from R&D Systems”?
Answer: EC50 [2]: 0.202 nM; EC50 [4]: 43 nM

Question: Which EC50 [2] does the source give for “eotaxin: chemokine purchased from R&D Systems” here?
Answer: The EC50 was 0.017 nM.

B1: eotaxin-2: chemokine, positive control in the whole blood assay (protein, UniProt O00175 27-119, looked up)
C-C motif chemokine 24: VVIPSPCCMFFVSKRIPENRVVSYQLSSRSTCLKAGVIFTTKKGQQFCGDPKQEWVQRYMKNLDAKQKKASPRARAVAVKGPVQRYPGNQTTC
Question: For B1, which “% change (increase in FSC compared to unstimulated cells)” value ([1]; Eotaxin2 0.01 nM) is on record?
Answer: The value was 3.5%.

Question: And the “GeoMean (FSC of eosinophils)” value ([1]; Eotaxin2 0.01 nM)?
Answer: Its value is 233.4.

Question: What about the “% change (increase in FSC compared to unstimulated cells)” value ([1]; Eotaxin2 0.1 nM) of the same molecule?
Answer: The value was 1.0%.

Question: What about the “GeoMean (FSC of eosinophils)” value ([1]; Eotaxin2 0.1 nM) of the same molecule?
Answer: The value was 227.7.

Question: What about the “% change (increase in FSC compared to unstimulated cells)” value ([1]; Eotaxin2 1 nM) of the same molecule?
Answer: The value was 26.3%.

Question: What about the “GeoMean (FSC of eosinophils)” value ([1]; Eotaxin2 1 nM) of the same molecule?
Answer: Its value is 284.7.

Question: And the “% change (increase in FSC compared to unstimulated cells)” value ([1]; Eotaxin2 10 nM)?
Answer: Its value is 53.4%.

Question: What about the “GeoMean (FSC of eosinophils)” value ([1]; Eotaxin2 10 nM) of the same molecule?
Answer: Its value is 346.0.

Question: What about the “% change (increase in FSC compared to unstimulated cells)” value ([1]; Eotaxin2 100 nM) of the same molecule?
Answer: Its value is 19.4%.

Question: And the “GeoMean (FSC of eosinophils)” value ([1]; Eotaxin2 100 nM)?
Answer: Its value is 269.3.

Question: What about the EC50 [2] of the same molecule?
Answer: The EC50 was 0.021 nM.

Question: And the EC50 [4]?
Answer: The EC50 was 1.9 nM.
